# In patent US11795460B2, “Compositions and methods for TTR gene editing and treating ATTR amyloidosis” (Intellia Therapeutics, Inc., priority 2017, dated 2023):
# Strand notation (5' to 3'): a small letter for the sugar, then the base; units joined by * are phosphorothioate-linked, units joined directly phosphodiester-linked; [ ] holds rarer units or linkages, { } end groups; capitals alone tell only the bases. m = 2'-O-methyl; r = 2'-OH (RNA)
# Test system: mouse TTR
# Assay: Serum mouse TTR ELISA in mice dosed with LNP formulations (Table 28)
# Type: in vivo
# Details: wild type CD-1 mice; 1, 0.3, 0.1, 0.03, or 0.01 mg/kg; FIG. 15B
# Procedure: Blood was collected and the serum was isolated as indicated. The total mouse TTR serum levels were determined using a Mouse Prealbumin (Transthyretin) ELISA Kit (Aviva Systems Biology, Cat. OKIA00111); rat TTR serum levels were measured using a rat specific ELISA kit (Aviva Systems Biology catalog number OKIA00159); human TTR serum levels were measured using a human specific ELISA kit (Aviva Systems Biology catalog number OKIA00081); each according to manufacture's protocol. Briefly, sera were serial diluted with kit sample diluent to a final dilution of 10,000-fold, or 5,000-fold when measuring human TTR in mouse sera. […] The absorbance of the contents was measured on the Spectramax M5 plate reader with analysis using SoftmaxPro version 7.0 software. Serum TTR levels were quantitated off the standard curve using 4 parameter logistic fit and expressed as ug/mL of serum or percent knockdown relative control (vehicle treated) animals.
# In separate experiments using wild type CD-1 mice, an LNP formulation comprising guide G000502, which is cross homologous between mouse and cyno, was tested in a dose response study. […] Liver editing results were determined using primers designed to amplify the region of interest for NGS analysis. […]
molecule,measurement,value
"G000502: TTR Cyno specific sgRNA modified sequence, SEQ ID No. 114; guide sequence of CR000689; cross homologous between mouse and cyno (nucleic acid) guide: mA*mC*mA*rCrArArArUrArCrCrArGrUrCrCrArGrCrGrGrUrUrUrUrArGrAmGmCmUmAmGmAmAmAmUmAmGmCrArArGrUrUrArArArArUrArArGrGrCrUrArGrUrCrCrGrUrUrArUrCrAmAmCmUmUmGmAmAmAmAmAmGmUmGmGmCmAmCmCmGmAmGmUmCmGmGmUmGmCmU*mU*mU*mU","Serum mouse TTR levels, dose response",A dose response for both editing and serum TTR levels was evident
